Assay results published in article PMC1669734 (Nucleic Acids Research, 2006).

Molecular target: T1, 35S-MCM (T.acidophilum MCM labeled with 35S-Met) (Thermoplasma acidophilum, UniProt Q9HK10 1-698, 35S-Met)
T1 sequence (looked up): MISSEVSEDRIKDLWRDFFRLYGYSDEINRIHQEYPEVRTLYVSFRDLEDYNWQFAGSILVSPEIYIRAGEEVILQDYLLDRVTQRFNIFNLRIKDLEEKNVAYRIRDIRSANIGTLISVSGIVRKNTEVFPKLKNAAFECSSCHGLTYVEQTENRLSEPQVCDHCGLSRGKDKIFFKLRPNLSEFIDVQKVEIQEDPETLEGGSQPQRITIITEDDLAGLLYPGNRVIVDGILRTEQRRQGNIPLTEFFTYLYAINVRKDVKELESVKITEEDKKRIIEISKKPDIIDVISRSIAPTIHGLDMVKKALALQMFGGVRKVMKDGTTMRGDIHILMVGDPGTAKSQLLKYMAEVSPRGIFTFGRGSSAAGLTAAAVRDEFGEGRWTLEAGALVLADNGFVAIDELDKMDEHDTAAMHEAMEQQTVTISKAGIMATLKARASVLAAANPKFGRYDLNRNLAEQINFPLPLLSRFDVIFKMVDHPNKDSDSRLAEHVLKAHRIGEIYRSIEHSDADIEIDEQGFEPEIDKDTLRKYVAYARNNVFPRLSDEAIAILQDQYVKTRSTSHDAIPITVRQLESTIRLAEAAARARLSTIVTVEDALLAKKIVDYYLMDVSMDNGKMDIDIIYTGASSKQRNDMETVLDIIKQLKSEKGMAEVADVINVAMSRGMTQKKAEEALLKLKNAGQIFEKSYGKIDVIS
Test: pull-down

binding result: binds
B1: T.acidophilum Cdc6-2 (Ta0636), C-terminal six His-tag (natural protein, Thermoplasma acidophilum, UniProt Q9HKG3 1-404, looked up)
chain: MDNPFARFAGTRTIQANLSLLEENYVPDSFPHRENQINEMVTILSSIMRGSRPSNIIVYGKTGTGKTSTTKYVTKMLVEAASNVSVVYVNCEIYDSPYSILVAIANSAGEEKIPELGWPIDRIYRETVERVEKTGKFFIIILDEMDRLIKKNGGDSLYVLLKLMTDVDSVRVSMIGITNDTTVLENIDARIKSRLNQESIVFPPYNASEIRDIISSRLDKVLGPGVVDDTAINLCAAIGAQEHGDARKAIDLMRIAIEIAIRENRNKITENEIYEARERYEMNVLREAISTLPLHSKIVLLSAVVTQEIEPNSVITGEIYENYRRICDDLGFSPLSPRRISDLLTELADYGLLVMDDRNMGKYGRTRSFSVVHQAETIKKYLLEDENLSMFKSSKMPKQTRFDT
